Measured values: patent publication US20100105876A1, “Method for the oligomerisation of peptides” (priority 1996, published 2010)
Bridge positions count the residues as written; N and C are the ends. Ends that are not written are not given here.

Columns and labels:
[1] = molecular target: Pentabody Pab-S (peptide S - camel Ig hinge - modified COMP pentamerization domain - 6xHis, homopentamer) (UniProt P35444); test: soluble BCL1 IgM competing the binding of Pab-S to BCL1 cells
BCL1 IgM idiotype = test: RIA competition on plastic: inhibition of 125I labeled B1 IgG binding to coated BCL1 IgM; set-up: species or system mouse
Method: RIA competition on plastic. Polyvinil 96-well plates are coated with BCL1 IgM at 3 μg/ml in PBS for 16 h at 4° C. and blocked with 2% MPBS for 1 h at 37° C. Different amounts of peptides are incubated with 10 nCi of ^125I labeled B1 IgG for 1 h at 37° C. The wells are washed with PBS containing 0.1% of Tween-20 and the amounts of radioactivity retained is measured with an automated multichannel Cobra II γ-counter.
Synthetic peptides corresponding to the selected sequences are prepared as outlined in Table 1. Cysteins containing peptide S is completely oxidized on air loosing two hydrogen atoms, as shown by Mass Spectroscopy, which is consistent with the cyclization of the peptide. All synthetic peptides are tested for binding inhibition of ^125I labeled B1 IgG to BCL1 IgM coated on plastic. The D and the S peptides inhibit binding with an IC50 of about 60 μM and 200 μM, respectively. No inhibition is seen with peptide F up to 2 mM, which is used, thereafter, as a negative control.
However, since spatial arrangement of target molecule on the surface may influence multivalent binding, the equilibrium binding parameters of Pab-S are determined directly on live BCL1 cells, which represent a more relevant biological surface. Purified Pab-S is labeled with ^125I and is shown to bind to BCL1 idiotype on the cell surface. […]

[2] = molecular target: BCL1 soluble IgM (idiotype-bearing IgM purified from the serum of a mouse carrying the BCL1 B-cell lymphoma) (mouse); test: RIA competition: peptide against 125I B1 IgG on BCL1 IgM coated on plastic

Chain of UniProt P35444 (P35444 other isoform, or with tags, fused parts or gaps): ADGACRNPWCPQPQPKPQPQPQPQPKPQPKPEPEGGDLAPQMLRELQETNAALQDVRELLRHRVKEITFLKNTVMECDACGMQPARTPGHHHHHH

In the case of “BCL1 soluble IgM (idiotype-bearing IgM purified from the serum of a mouse carrying the BCL1 B-cell lymphoma) (antibody)”, the concentration for 80% displacement [1] is reported as 100 nM.

For SVWRWLPYDKYE, the IC50 (BCL1 IgM idiotype; synthetic peptides, BCL1 IgM coated on plastic) was ~60 µM.

“peptide F: Synthetic peptide, first ten amino acids of the sequence selected from the Fisch library (SEQ ID 3); negative control (TAAGLCEFDQ; Synthetic peptide ligand specific for mouse BCL1 idiotype selected from peptide libraries dispalyed on filamentous bacteriophage displaying random hexapeptides or decapeptides)” was tested, and the “inhibition of 125I labeled B1 IgG binding to BCL1 IgM coated on plastic” value (BCL1 IgM idiotype; up to 2 mM peptide) was “No inhibition”.

B1: synthetic peptide D (selected from the Doorbar library) (peptide)
peptide: SVWRWLPYDKYE
B1 gave an IC50 [2] of 60 µM.

B2: synthetic peptide S (selected from the Smith library, oxidized/cyclized) (peptide)
peptide: ADGACRNPWC
modifications: disulfide 5-10 (inferred)
B2 was tested, and the IC50 [2] was 200 µM.
